This is an account of results in IntAct's records for PubMed 24636949.

B1: Unconventional myosin-Ic (Homo sapiens), O00159-2 (parent)
chain: MESALTARDRVGVQDFVLLENFTSEAAFIENLRRRFRENLIYTYIGPVLVSVNPYRDLQIYSRQHMERYRGVSFYEVPPHLFAVADTVYRALRTERRDQAVMISGESGAGKTEATKRLLQFYAETCPAPERGGAVRDRLLQSNPVLEAFGNAKTLRNDNSSRFGKYMDVQFDFKGAPVGGHILSYLLEKSRVVHQNHGERNFHIFYQLLEGGEEETLRRLGLERNPQSYLYLVKGQCAKVSSINDKSDWKVVRKALTVIDFTEDEVEDLLSIVASVLHLGNIHFAANEESNAQVTTENQLKYLTRLLSVEGSTLREALTHRKIIAKGEELLSPLNLEQAAYARDALAKAVYSRTFTWLVGKINRSLASKDVESPSWRSTTVLGLLDIYGFEVFQHNSFEQFCINYCNEKLQQLFIELTLKSEQEEYEAEGIAWEPVQYFNNKIICDLVEEKFKGIISILDEECLRPGEATDLTFLEKLEDTVKHHPHFLTHKLADQRTRKSLGRGEFRLLHYAGEVTYSVTGFLDKNNDLLFRNLKETMCSSKNPIMSQCFDRSELSDKKRPETVATQFKMSLLQLVEILQSKEPAYVRCIKPNDAKQPGRFDEVLIRHQVKYLGLLENLRVRRAGFAYRRKYEAFLQRYKSLCPETWPTWAGRPQDGVAVLVRHLGYKPEEYKMGRTKIFIRFPKTLFATEDALEVRRQSLATKIQAAWRGFHWRQKFLRVKRSAICIQSWWRGTLGRRKAAKRKWAAQTIRRLIRGFVLRHAPRCPENAFFLDHVRTSFLLNLRRQLPQNVLDTSWPTPPPALREASELLRELCIKNMVWKYCRSISPEWKQQLQQKAVASEIFKGKKDNYPQSVPRLFISTRLGTDEISPRVLQALGSEPIQYAVPVVKYDRKGYKPRSRQLLLTPNAVVIVEDAKVKQRIDYANLTGISVSSLSDSLFVLHVQRADNKQKGDVVLQSDHVIETLTKTALSANRVNSININQGSITFAGGPGRDGTIDFTPGSELLITKAKNGHLAVVAPRLNSR

The variants in the assay derive from B1. The conditions noted are these: with 1433b_human YWHAB.
Regarding S701A, the “effect of a mutation on the interaction” value is given as “disrupting interaction strength”.

As for S701E, the “effect of a mutation on the interaction” value is recorded as “increasing interaction strength”.
